From publication PMC2275666 (The EMBO Journal, 2008)
Residue numbers refer to the chain shown, from its start.

Assays:
Assay in all cases: pull-down
[1] = biological target: T1, 6H–hTFIIEα S365E (human, UniProt P29083 1-439, S365E)
T1 sequence: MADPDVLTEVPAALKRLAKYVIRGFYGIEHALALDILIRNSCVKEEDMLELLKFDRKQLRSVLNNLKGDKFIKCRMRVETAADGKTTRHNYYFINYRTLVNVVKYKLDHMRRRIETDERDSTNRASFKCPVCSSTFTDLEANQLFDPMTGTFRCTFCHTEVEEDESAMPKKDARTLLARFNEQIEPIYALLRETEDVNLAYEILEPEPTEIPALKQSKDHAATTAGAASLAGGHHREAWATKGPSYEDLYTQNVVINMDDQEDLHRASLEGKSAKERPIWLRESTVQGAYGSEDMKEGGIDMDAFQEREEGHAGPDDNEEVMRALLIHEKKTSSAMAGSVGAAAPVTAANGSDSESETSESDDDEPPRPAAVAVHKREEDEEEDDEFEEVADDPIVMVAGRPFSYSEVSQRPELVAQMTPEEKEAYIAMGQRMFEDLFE

[2] = biological target: T2, 6H–hTFIIEα E383A (human, UniProt P29083 1-439, E383A)
T2 sequence: T1 sequence with E365S, E383A

[3] = biological target: T3, 6H–hTFIIEα S365A (human, UniProt P29083 1-439, S365A)
T3 sequence: T1 sequence with E365A

[4] = biological target: T4, 6H–hTFIIEα V372D (human, UniProt P29083 1-439, V372D)
T4 sequence: T1 sequence with E365S, V372D

[5] = biological target: T5, 6H–hTFIIEα V372A (human, UniProt P29083 1-439, V372A)
T5 sequence: T1 sequence with E365S, V372A

Measured: binding result

B1: GST-tagged hTFIIEβ (natural protein)
chain: MDPSLLRERELFKKRALSTPVVEKRSASSESSSSSSKKKKTKVEHGGSSGSKQNSDHSNGSFNLKALSGSSGYKFGVLAKIVNYMKTRHQRGDTHPLTLDEILDETQHLDIGLKQKQWLMTEALVNNPKIEVIDGKYAFKPKYNVRDKKALLRLLDQHDQRGLGGILLEDIEEALPNSQKAVKALGDQILFVNRPDKKKILFFNDKSCQFSVDEEFQKLWRSVTVDSMDEEKIEEYLKRQGISSMQESGPKKVAPIQRRKKPASQKKRRFKTHNEHLAGVLKDYSDITSSK
binds: all assays above
